Where two headings read alike, the source gives them in different places.
Tests used:
[1] = target: T1, WT hNET (Homo sapiens, UniProt P23975); experiment: kinetic analysis of [3H]DA uptake, WT hNET; type: cell-based; design: expressed in transfected cells; host or cells: CHO cells, transient transfection with Lipofectamine 2000
Experimental: (§1) The kinetic parameters of [^3H]DA uptake, maximal velocity (Vmax) and Michalis-Menton constant (Km), were determined in CHO cells transiently transfected with WT hNET and its mutants seeded in 24 well plates as described above. […] After the 10-min incubation period, cells were incubated for 8 min at room temperature with a series of one of six concentrations of mixed [^3H]DA (0.001–1.0 μM, final concentration). The reaction was terminated by the removal of solution from the wells followed by three rapid washes of ice-cold 1 x KRH. Cells were lysed with 500 μL of 1 % SDS for 1 h and radioactivity measured as described above. Specific hNET-mediated DA uptake was calculated by subtracting the nonspecific uptake (in the presence of desipramine and nomifensine) from the total uptake.
Results are presented as mean ± SEM. […] Kinetic parameters (Vmax and Km) were determined from saturation curves by nonlinear regression analysis using a one-site model with variable slope. IC50 values for the substrate and inhibitors for [^3H]DA uptake were determined from nonlinear regression analysis inhibition curves using a one-site model with variable slope. […] Significant differences between samples were analyzed with independent ANOVAs followed by post-hoc tests, which is indicated in the Results Section of the efflux experiments. […]

[2] = target: T2, E223A hNET (Homo sapiens, UniProt P23975, E223A); experiment: kinetic analysis of [3H]DA uptake, E223A hNET; type: cell-based; design: expressed in transfected cells; host or cells: CHO cells, transient transfection with Lipofectamine 2000
T2 sequence (P23975 whole entry E223A): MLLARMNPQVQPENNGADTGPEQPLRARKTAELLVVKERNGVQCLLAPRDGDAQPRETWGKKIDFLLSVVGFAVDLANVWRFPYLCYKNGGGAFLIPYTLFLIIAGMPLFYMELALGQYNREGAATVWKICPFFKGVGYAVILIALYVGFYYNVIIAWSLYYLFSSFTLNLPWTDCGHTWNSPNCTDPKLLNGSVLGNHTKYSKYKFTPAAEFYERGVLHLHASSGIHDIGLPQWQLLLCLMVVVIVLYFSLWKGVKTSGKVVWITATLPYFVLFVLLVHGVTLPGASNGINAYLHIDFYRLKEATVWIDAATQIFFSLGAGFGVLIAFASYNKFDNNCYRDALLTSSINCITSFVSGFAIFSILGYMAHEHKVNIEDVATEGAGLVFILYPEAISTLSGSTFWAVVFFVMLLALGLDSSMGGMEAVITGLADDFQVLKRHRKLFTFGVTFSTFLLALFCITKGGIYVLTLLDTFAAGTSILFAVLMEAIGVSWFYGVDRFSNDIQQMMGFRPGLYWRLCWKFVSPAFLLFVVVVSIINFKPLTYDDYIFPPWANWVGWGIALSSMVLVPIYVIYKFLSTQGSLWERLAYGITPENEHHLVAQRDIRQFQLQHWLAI
Experimental: as §1
(§2) Results are presented as mean ± SEM. The number of n represents the number of independent experiments from each experiment group. Kinetic parameters (Vmax and Km) were determined from saturation curves by nonlinear regression analysis using a one-site model with variable slope. IC50 values for the substrate and inhibitors for [^3H]DA uptake were determined from nonlinear regression analysis inhibition curves using a one-site model with variable slope. GraphPad Prism (version 10.1.2.) was used to calculate the kinetic parameters and IC50 values for substrate and inhibitors inhibiting [^3H]DA uptake or [^3H] WIN35428. For any experiment involving comparisons between unpaired samples, unpaired Student’s t tests were used to determine any difference between parameters between WT hNET and its mutants. Log-transformed IC50 values were used for statistical comparisons. One-way ANOVA comparisons with repeat measurements were used for analyzing the [^3H]DA and [^3H]MPP^+ efflux data. Significant differences between samples were analyzed with independent ANOVAs followed by post-hoc tests, which is indicated in the Results Section of the efflux experiments. All statistical analyses were performed using the IBM SPSS Statistics version 29 and returned values of at least p < 0.05 were considered significant.

[3] = target: T3, N198A hNET (Homo sapiens, UniProt P23975, N198A); experiment: kinetic analysis of [3H]DA uptake, N198A hNET; type: cell-based; design: expressed in transfected cells; host or cells: CHO cells, transient transfection with Lipofectamine 2000
T3 sequence (P23975 whole entry N198A): as the sequence (P23975 whole entry E223A) above, with N198A, A223E counted along it
Experimental: as §1, §2

[4] = target: T2, E223A hNET; experiment: basal [3H]DA and [3H]MPP+ efflux, E223A hNET; type: cell-based; design: expressed in transfected cells; host or cells: CHO cells, transient transfection with Lipofectamine 2000; settings: across 90 min, preloaded 50 nM, 20 min
Experimental: (§3) To determine whether N198A or E223A hNET alters transporter conformational transients, [^3H]DA or [^3H]MPP^+ efflux was performed based on our previous studies ([Midde et al., 2015]; [Quizon et al., 2021]). Intact CHO cells in precoated 24-well plates transfected with WT hNET or its mutants were preloaded with [^3H]DA (50 nM final concentration) for 20 min or [^3H]MPP^+ (5 nM final concentration) for 30 min at room temperature. After the preloading period, cells were washed twice with 1 x KRH buffer before collecting fractional release samples. Total uptake of [^3H]DA or [^3H]MPP^+ at the zero time point was estimated from four wells per genotype that were lysed immediately with 1 % SDS after preloading period. Nonspecific uptake of [^3H]DA or [^3H]MPP^+ at zero time point was estimated from four wells per genotype that were incubated with the hNET inhibitors desipramine and nomifensine (100 μM and 10 μM final concentration, respectively) and lysed immediately with 1 % SDS after the preloading period. To collect fractional release, 500 μL of KRH buffer was added into a set of four wells and transferred to scintillation vials after 0 min as the initial fractional efflux. Fresh 500 μL of 1 x KRH buffer was added into the wells and incubated for 10 min then transferred to scintillation vials. Fractional efflux was collected every 10 min for 90 min ([^3H]DA) or 110 min ([^3H]MPP^+). […]

[5] = target: T3, N198A hNET; experiment: basal [3H]DA and [3H]MPP+ efflux, N198A hNET; type: cell-based; design: expressed in transfected cells; host or cells: CHO cells, transient transfection with Lipofectamine 2000; settings: across 90 min, preloaded 50 nM, 20 min
Experimental: as §3

[6] = target: T3, N198A hNET; type: binding; design: expressed in transfected cells; host or cells: CHO cells, transient transfection with Lipofectamine 2000
[7] = target: T1, WT hNET; type: binding; design: expressed in transfected cells; host or cells: CHO cells, transient transfection with Lipofectamine 2000
[8] = target: T2, E223A hNET; type: binding; design: expressed in transfected cells; host or cells: CHO cells, transient transfection with Lipofectamine 2000
[9] = target: T3, N198A hNET
[10] = target: T1, WT hNET
[11] = target: T1, WT hNET; experiment: Ki of rTat1-86 inhibiting [3H]DA uptake in WT hNET cell suspensions; type: cell-based; design: expressed in transfected cells; host or cells: CHO cells, transient transfection with Lipofectamine 2000
Experimental: To determine the inhibitor constant (Ki) of rTat1-86 inhibiting DA uptake in WT hNET, cells in 10 cm plates were cultured and transfected with WT hNET as described above. All reagents were made in 1 x KRH containing 0.1 % Protease Inhibitor Cocktail 1 (P2850, Sigma-Aldrich) and 0.1 % Protease Inhibitor Cocktail (P8340, Sigma-Aldrich). Cells were detached and harvested as described above. The cell suspensions were then incubated with a range of rTat1-86 (0.25–140 nM, final concentrations) for 20 min at room temperature. […] The reaction was then terminated as described above.

[12] = target: T2, E223A hNET
[13] = per 10^6 cells, DA 0.001-1.0 μM

T1 sequence (P23975 whole entry): as the sequence (P23975 whole entry E223A) above, with A223E counted along it

NCCc1ccc(O)c(O)c1 [[^3H]DA, 3,4-ethyl-2[N-P^3PH]dihydroxyphenylethylamine]
Km [1]: 0.057 ± 0.008 µM
Km [2]: 0.066 ± 0.011 µM
Km [3]: 0.084 ± 0.02 µM

[3H]c1c([3H])c(CCN)c([3H])c(O)c1O [[^3H]DA, 3,4-ethyl-2[N-P^3PH]dihydroxyphenylethylamine]
overall [3H]DA efflux compared to WT hNET [4]: significantly reduced
Vmax of [3H]DA uptake [1, 13]: 525.4 ± 89.8 fmol/min/10^6
overall [3H]DA efflux compared to WT hNET [5]: significantly reduced
reduction in Vmax of [3H]DA uptake compared to WT hNET [2]: 71.2%
Vmax of [3H]DA uptake [2, 13]: 151.1 ± 14.5 fmol/min/10^6
reduction in Vmax of [3H]DA uptake compared to WT hNET [3]: 82.6%
Vmax of [3H]DA uptake [3, 13]: 91.4 ± 16.4 fmol/min/10^6

COC(=O)[C@H]1[C@@H](c2ccc(F)cc2)C[C@@H]2CC[C@H]1N2C [[^3H]WIN35428]
specific [3H]WIN35428 binding [6]: 11361 ± 652 DPM
specific [3H]WIN35428 binding normalized as a percentage of WT hNET [6]: 80.67 ± 4.6%
specific [3H]WIN35428 binding [7]: 14083 ± 1198 DPM
specific [3H]WIN35428 binding normalized as a percentage of WT hNET [7]: 100 ± 8.5%
specific [3H]WIN35428 binding [8]: 11806 ± 567 DPM
specific [3H]WIN35428 binding normalized as a percentage of WT hNET [8]: 83.83 ± 4.0

rTat1-86: recombinant HIV-1 transactivator of transcription (rTat1-86), purchased from ImmunoDX
Tat-induced reduction of [3H]DA uptake compared to its control ([9]; 8.75 nM rTat1-86): attenuated
specific [3H]DA uptake with Tat, direct counts ([9]; 8.75 nM rTat1-86 (without Tat: 1934 ± 210)): 1883 ± 175 DPM
Tat-induced reduction of [3H]DA uptake compared to its control ([9]; 140 nM rTat1-86): attenuated
specific [3H]DA uptake with Tat, direct counts ([9]; 140 nM rTat1-86 (without Tat: 912 ± 212)): 954 ± 213 DPM
reduction of specific [3H]DA uptake relative to control ([10]; 8.75 nM rTat1-86): 24.2%
specific [3H]DA uptake with Tat, direct counts ([10]; 8.75 nM rTat1-86 (without Tat: 2778 ± 240)): 2106 ± 191 DPM
reduction of specific [3H]DA uptake relative to control ([10]; 140 nM rTat1-86): 34.22%
specific [3H]DA uptake with Tat, direct counts ([10]; 140 nM rTat1-86 (without Tat: 1870 ± 238)): 1230 ± 163 DPM
reduction of specific [3H]DA uptake relative to control ([10]; 140 nM rTat1-86, listed as recombinant Tat1-86): 34%
predicted occupancy of hNET molecules ([11]; 8.75 nM rTat1-86, approximately 2.6-fold the Ki): ~ 72%
predicted occupancy of hNET molecules ([11]; 140 nM rTat1-86, approximately 41.2-fold the Ki): ~ 98%
plateau of Tat's inhibitory effect on DA uptake ([11]; WT hNET, Tat concentrations from 8.75 nM to 140 nM): 65.2%
Ki ([11]; WT hNET, rTat1-86 0.25-140 nM, 20 min, 50 nM [3H]DA, read-out: Ki for inhibiting hNET-mediated DA uptake): 3.4 nM
Tat-induced reduction of [3H]DA uptake compared to its control ([12]; 8.75 nM rTat1-86): attenuated
specific [3H]DA uptake with Tat, direct counts ([12]; 8.75 nM rTat1-86 (without Tat: 2113 ± 237)): 1950 ± 215 DPM
reduction of specific [3H]DA uptake relative to control ([12]; 140 nM rTat1-86): 26.98%
specific [3H]DA uptake with Tat, direct counts ([12]; 140 nM rTat1-86 (without Tat: 1711 ± 261)): 1206 ± 239 DPM
